{
  "source": "the RNAGym collection of RNA variant scans (doi:10.1021/acssynbio.7b00057)",
  "parents": {"B1": {"name": "Pistol ribozyme (parent)", "chain": "GGGUCGUUGUUCCAUAAUCGCGUGGAUAUGGCACGCAAGUUUCUACCGGGCACCGUAAAUGUCCGACUGGAGCCGUUCGGGCGGCUAUAAACAGACCUCAGGCCCGAAGCGUGGCGGCACCUGCCGCCGGUGGUAAAAAAGAUCGGAAGAGCACACGUCU"}},
  "data": [
    {"variants_of": "B1", "test": "aptazyme ON/OFF ratio, guanine; higher = stronger switching; co-transcriptional cleavage with and without guanine", "values": [
      {"variant": "GGGUCGUCAGAAAAUAAUCGCGUGGAUAUGGCACGCAAGUUUCUACCGGGCACCGUAAAUGUCCGACUGGAGCCGUUCGGGCGGCUAUAAACAGACCUCAGGCCCGAAGCGUGGCGGCACCUGCCGCCGGUGGUAAAAAAGAUCGGAAGAGCACACGUCU", "note": "[U8C G9A U10G U11A C12A C13A]", "aptazyme ON/OFF ratio": 1.14},
      {"variant": "GGGUCGUAGACCAAUAAUCGCGUGGAUAUGGCACGCAAGUUUCUACCGGGCACCGUAAAUGUCCGACUGGAGCCGUUCGGGCGGCUAUAAACAGACCUCAGGCCCGAAGCGUGGCGGCACCUGCCGCCGGUGGUAAAAAAGAUCGGAAGAGCACACGUCU", "note": "[U8A U10A U11C C13A]", "aptazyme ON/OFF ratio": 1.03},
      {"variant": "GGGUCGAUAGGAGAUAAUCGCGUGGAUAUGGCACGCAAGUUUCUACCGGGCACCGUAAAUGUCCGACUGGAGCCGUUCGGGCGGCUAUAAACAGACCUCAGGCCCGAAGCGUGGCGGCACCUGCCGCCGGUGGUAAAAAAGAUCGGAAGAGCACACGUCU", "note": "[U7A G9A U10G U11G C12A C13G]", "aptazyme ON/OFF ratio": 1.29},
      {"variant": "GGGUCGAAACAAGAUAAUCGCGUGGAUAUGGCACGCAAGUUUCUACCGGGCACCGUAAAUGUCCGACUGGAGCCGUUCGGGCGGCUAUAAACAGACCUCAGGCCCGAAGCGUGGCGGCACCUGCCGCCGGUGGUAAAAAAGAUCGGAAGAGCACACGUCU", "note": "[U7A U8A G9A U10C U11A C12A C13G]", "aptazyme ON/OFF ratio": 1.06},
      {"variant": "GGGUCGGGCGAGAAUAAUCGCGUGGAUAUGGCACGCAAGUUUCUACCGGGCACCGUAAAUGUCCGACUGGAGCCGUUCGGGCGGCUAUAAACAGACCUCAGGCCCGAAGCGUGGCGGCACCUGCCGCCGGUGGUAAAAAAGAUCGGAAGAGCACACGUCU", "note": "[U7G U8G G9C U10G U11A C12G C13A]", "aptazyme ON/OFF ratio": 1.06},
      {"variant": "GGGUCGCUGAUAAAUAAUCGCGUGGAUAUGGCACGCAAGUUUCUACCGGGCACCGUAAAUGUCCGACUGGAGCCGUUCGGGCGGCUAUAAACAGACCUCAGGCCCGAAGCGUGGCGGCACCUGCCGCCGGUGGUAAAAAAGAUCGGAAGAGCACACGUCU", "note": "[U7C U10A C12A C13A]", "aptazyme ON/OFF ratio": 1.16},
      {"variant": "GGGUCGCGAAAUGAUAAUCGCGUGGAUAUGGCACGCAAGUUUCUACCGGGCACCGUAAAUGUCCGACUGGAGCCGUUCGGGCGGCUAUAAACAGACCUCAGGCCCGAAGCGUGGCGGCACCUGCCGCCGGUGGUAAAAAAGAUCGGAAGAGCACACGUCU", "note": "[U7C U8G G9A U10A U11A C12U C13G]", "aptazyme ON/OFF ratio": 1.17},
      {"variant": "GGGUCGGGGACGGAUAAUCGCGUGGAUAUGGCACGCAAGUUUCUACCGGGCACCGUAAAUGUCCGACUGGAGCCGUUCGGGCGGCUAUAAACAGACCUCAGGCCCGAAGCGUGGCGGCACCUGCCGCCGGUGGUAAAAAAGAUCGGAAGAGCACACGUCU", "note": "[U7G U8G U10A U11C C12G C13G]", "aptazyme ON/OFF ratio": 1.11},
      {"variant": "GGGUCGAGGUUAUAUAAUCGCGUGGAUAUGGCACGCAAGUUUCUACCGGGCACCGUAAAUGUCCGACUGGAGCCGUUCGGGCGGCUAUAAACAGACCUCAGGCCCGAAGCGUGGCGGCACCUGCCGCCGGUGGUAAAAAAGAUCGGAAGAGCACACGUCU", "note": "[U7A U8G C12A C13U]", "aptazyme ON/OFF ratio": 1.31},
      {"variant": "GGGUCGCGCUCUUAUAAUCGCGUGGAUAUGGCACGCAAGUUUCUACCGGGCACCGUAAAUGUCCGACUGGAGCCGUUCGGGCGGCUAUAAACAGACCUCAGGCCCGAAGCGUGGCGGCACCUGCCGCCGGUGGUAAAAAAGAUCGGAAGAGCACACGUCU", "note": "[U7C U8G G9C U11C C12U C13U]", "aptazyme ON/OFF ratio": 1.07},
      {"variant": "GGGUCGGCUAUUAAUAAUCGCGUGGAUAUGGCACGCAAGUUUCUACCGGGCACCGUAAAUGUCCGACUGGAGCCGUUCGGGCGGCUAUAAACAGACCUCAGGCCCGAAGCGUGGCGGCACCUGCCGCCGGUGGUAAAAAAGAUCGGAAGAGCACACGUCU", "note": "[U7G U8C G9U U10A C12U C13A]", "aptazyme ON/OFF ratio": 1.21},
      {"variant": "GGGUCGACAUGACAUAAUCGCGUGGAUAUGGCACGCAAGUUUCUACCGGGCACCGUAAAUGUCCGACUGGAGCCGUUCGGGCGGCUAUAAACAGACCUCAGGCCCGAAGCGUGGCGGCACCUGCCGCCGGUGGUAAAAAAGAUCGGAAGAGCACACGUCU", "note": "[U7A U8C G9A U11G C12A]", "aptazyme ON/OFF ratio": 1.11},
      {"variant": "GGGUCGAUGUAAAAUAAUCGCGUGGAUAUGGCACGCAAGUUUCUACCGGGCACCGUAAAUGUCCGACUGGAGCCGUUCGGGCGGCUAUAAACAGACCUCAGGCCCGAAGCGUGGCGGCACCUGCCGCCGGUGGUAAAAAAGAUCGGAAGAGCACACGUCU", "note": "[U7A U11A C12A C13A]", "aptazyme ON/OFF ratio": 1.3},
      {"variant": "GGGUCGGACUAGAAUAAUCGCGUGGAUAUGGCACGCAAGUUUCUACCGGGCACCGUAAAUGUCCGACUGGAGCCGUUCGGGCGGCUAUAAACAGACCUCAGGCCCGAAGCGUGGCGGCACCUGCCGCCGGUGGUAAAAAAGAUCGGAAGAGCACACGUCU", "note": "[U7G U8A G9C U11A C12G C13A]", "aptazyme ON/OFF ratio": 1.04},
      {"variant": "GGGUCGGGUUGACAUAAUCGCGUGGAUAUGGCACGCAAGUUUCUACCGGGCACCGUAAAUGUCCGACUGGAGCCGUUCGGGCGGCUAUAAACAGACCUCAGGCCCGAAGCGUGGCGGCACCUGCCGCCGGUGGUAAAAAAGAUCGGAAGAGCACACGUCU", "note": "[U7G U8G G9U U11G C12A]", "aptazyme ON/OFF ratio": 1.32},
      {"variant": "GGGUCGUACCAUGAUAAUCGCGUGGAUAUGGCACGCAAGUUUCUACCGGGCACCGUAAAUGUCCGACUGGAGCCGUUCGGGCGGCUAUAAACAGACCUCAGGCCCGAAGCGUGGCGGCACCUGCCGCCGGUGGUAAAAAAGAUCGGAAGAGCACACGUCU", "note": "[U8A G9C U10C U11A C12U C13G]", "aptazyme ON/OFF ratio": 1.06},
      {"variant": "GGGUCGCUGUUUCAUAAUCGCGUGGAUAUGGCACGCAAGUUUCUACCGGGCACCGUAAAUGUCCGACUGGAGCCGUUCGGGCGGCUAUAAACAGACCUCAGGCCCGAAGCGUGGCGGCACCUGCCGCCGGUGGUAAAAAAGAUCGGAAGAGCACACGUCU", "note": "[U7C C12U]", "aptazyme ON/OFF ratio": 1.73},
      {"variant": "GGGUCGGGUAGGGAUAAUCGCGUGGAUAUGGCACGCAAGUUUCUACCGGGCACCGUAAAUGUCCGACUGGAGCCGUUCGGGCGGCUAUAAACAGACCUCAGGCCCGAAGCGUGGCGGCACCUGCCGCCGGUGGUAAAAAAGAUCGGAAGAGCACACGUCU", "note": "[U7G U8G G9U U10A U11G C12G C13G]", "aptazyme ON/OFF ratio": 1.06}
    ]}
  ]
}
